Reference: publication PMC8001305

Tests used:
[1] = system: 2LTRZFP-GFP (designed six-finger zinc finger protein fused to GFP); assay: competition BLI; details: BLI (BLItz, SA tips): 10 mM Tris-HCl pH 7.5, 90 mM KCl, 1 mM MgCl2, 90 uM ZnSO4, 5 mM DTT, 0.5 mM PMSF, temperature not stated; IN: 1:5 IN reaction buffer …
[2] = system: 2LTRZFP-GFP (designed six-finger zinc finger protein fused to GFP); assay: competition ELISA; details: BLI (BLItz, SA tips): 10 mM Tris-HCl pH 7.5, 90 mM KCl, 1 mM MgCl2, 90 uM ZnSO4, 5 mM DTT, 0.5 mM PMSF, temperature not stated, IN: 1:5 IN reaction buffer …
[3] = system: 2LTRZFP-GFP (designed six-finger zinc finger protein fused to GFP); assay: BLI; details: BLI (BLItz, SA tips): 10 mM Tris-HCl pH 7.5, 90 mM KCl, 1 mM MgCl2, 90 uM ZnSO4, 5 mM DTT, 0.5 mM PMSF, temperature not stated; IN: 1:5 IN reaction buffer …
[4] = target: HIV-1 integrase (IN) (HIV-1) (UniProt P12497); assay: BLI; details: BLI (BLItz, SA tips): 10 mM Tris-HCl pH 7.5, 90 mM KCl, 1 mM MgCl2, 90 uM ZnSO4, 5 mM DTT, 0.5 mM PMSF, temperature not stated; IN: 1:5 IN reaction buffer …

Sequence: AAATCTCTAGCAGTACTGGATGGGCTAATT (double strand) [ds2LTR (30 bp HIV-1 2-LTR circle junction)]
- binding signal (nm BLI signal (1.2 without competitor)) [1]: 0.45
- binding signal [2]: 62 % inhibition
- Kd [3]: 40 nM
- Kd [4]: 75 nM
- binding signal (nm BLI signal (0.55 without 2LTRZFP-GFP)) [4]: 0.47

Sequence: TGACAGTGCTAGCGTATCATCTAGTCGACG (double strand) [dsNeg (30 bp irrelevant DNA)]
- binding signal (nm BLI signal (1.2 without competitor)) [1]: 1
- inhibition of binding to immobilized ds2LTR ([2]; 2 uM dsNeg as competitor against immobilized ds2LTR, OD 1.0 vs 1.3 uninhibited): 22 % inhibition
